The text below walks through data of patent US20250092108A1 (Xencor, published 2025).

The experiment deals with T1, IL-2 receptors (high-affinity IL-2Rαβγ or intermediate-affinity IL-2Rβγ) on PBMC lymphocytes (UniProt P01589 22-272; P14784 27-551; P31785 23-369, limits assumed).
T1 sequence (looked up) 1: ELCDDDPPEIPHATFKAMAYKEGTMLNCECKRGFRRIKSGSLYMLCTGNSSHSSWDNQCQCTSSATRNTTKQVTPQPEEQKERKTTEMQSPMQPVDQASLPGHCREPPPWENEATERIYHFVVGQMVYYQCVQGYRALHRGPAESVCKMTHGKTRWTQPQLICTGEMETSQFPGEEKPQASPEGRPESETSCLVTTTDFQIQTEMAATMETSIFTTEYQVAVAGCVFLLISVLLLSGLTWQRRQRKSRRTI
T1 sequence (looked up) 2: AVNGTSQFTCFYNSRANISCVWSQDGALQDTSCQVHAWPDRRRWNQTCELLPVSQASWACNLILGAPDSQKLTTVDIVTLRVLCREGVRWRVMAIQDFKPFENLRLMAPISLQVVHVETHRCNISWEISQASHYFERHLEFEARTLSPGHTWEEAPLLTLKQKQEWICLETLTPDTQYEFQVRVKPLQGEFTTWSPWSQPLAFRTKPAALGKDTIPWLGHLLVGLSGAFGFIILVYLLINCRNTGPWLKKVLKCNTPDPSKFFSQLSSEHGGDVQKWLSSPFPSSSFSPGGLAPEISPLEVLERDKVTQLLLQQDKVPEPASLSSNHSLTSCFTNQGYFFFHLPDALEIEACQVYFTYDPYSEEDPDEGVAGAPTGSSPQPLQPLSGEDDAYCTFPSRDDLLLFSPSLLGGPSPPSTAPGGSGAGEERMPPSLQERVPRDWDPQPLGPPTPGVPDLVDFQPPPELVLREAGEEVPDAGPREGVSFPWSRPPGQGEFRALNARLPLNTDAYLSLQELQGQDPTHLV
T1 sequence (looked up) 3: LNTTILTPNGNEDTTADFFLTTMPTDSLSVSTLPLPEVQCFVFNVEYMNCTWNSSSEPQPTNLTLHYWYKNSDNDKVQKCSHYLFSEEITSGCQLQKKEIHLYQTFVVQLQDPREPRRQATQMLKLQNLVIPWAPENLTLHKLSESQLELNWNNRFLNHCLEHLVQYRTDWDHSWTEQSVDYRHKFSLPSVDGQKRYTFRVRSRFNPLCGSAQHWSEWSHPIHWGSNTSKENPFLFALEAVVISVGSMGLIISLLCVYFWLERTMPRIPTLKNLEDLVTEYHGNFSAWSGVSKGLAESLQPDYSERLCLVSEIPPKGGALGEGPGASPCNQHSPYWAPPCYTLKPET
The experiment can be described thus: cell-based or functional assay.

B1: XENP26105 (Fc fusion)
chain 1: EPKSSDKTHTCPPCPAPPVAGPSVFLFPPKPKDTLMISRTPEVTCVVVDVKHEDPEVKFNWYVDGVEVHNAKTKPREEEYNSTYRVVSVLTVLHQDWLNGKEYKCKVSNKALPAPIEKTISKAKGQPREPQVYTLPPSREEMTKNQVSLTCDVSGFYPSDIAVEWESDGQPENNYKTTPPVLDSDGSFFLYSKLTVDKSRWEQGDVFSCSVMHEALHNHYTQKSLSLSPGK
chain 2: APASSSTKKTQLQLEHLLLNLQMILNGINNYKNPKLRRMLTFKFYMPKKATELKHLQCLEEELKPLEEVLNLAQSKNFHLRPRDLISNINVIVLELKGSETTFMCEYADETATIVEFLNRWITFSQSIISTLTEPKSSDKTHTCPPCPAPPVAGPSVFLFPPKPKDTLMISRTPEVTCVVVDVKHEDPEVKFNWYVDGVEVHNAKTKPREEQYNSTYRVVSVLTVLHQDWLNGKEYKCKVSNKALPAPIEKTISKAKGQPREPQVYTLPPSREQMTKNQVKLTCLVKGFYPSDIAVEWESNGQPENNYKTTPPVLDSDGSFFLYSKLTVDKSRWQQGNVFSCSVMHEALHNHYTQKSLSLSPGK
B1: the “EC50, induction of STAT5 phosphorylation (in vitro potency)” value is 1 nM.

B2: XENP26109 (Fc fusion)
chain 1: EPKSSDKTHTCPPCPAPPVAGPSVFLFPPKPKDTLMISRTPEVTCVVVDVKHEDPEVKFNWYVDGVEVHNAKTKPREEEYNSTYRVVSVLTVLHQDWLNGKEYKCKVSNKALPAPIEKTISKAKGQPREPQVYTLPPSREEMTKNQVSLTCDVSGFYPSDIAVEWESDGQPENNYKTTPPVLDSDGSFFLYSKLTVDKSRWEQGDVFSCSVMHEALHNHYTQKSLSLSPGK
chain 2: APASSSTKKTQLQLEHLLLNLQMILNGINNYKNPKLTRMLTFKFYMPKKATELKHLQCLEEELKPLEEVLKLAQSKNFHLRPRDLISNINVIVLELKGSETTFMCEYADETATIVEFLNRWITFSQSIISTLTEPKSSDKTHTCPPCPAPPVAGPSVFLFPPKPKDTLMISRTPEVTCVVVDVKHEDPEVKFNWYVDGVEVHNAKTKPREEQYNSTYRVVSVLTVLHQDWLNGKEYKCKVSNKALPAPIEKTISKAKGQPREPQVYTLPPSREQMTKNQVKLTCLVKGFYPSDIAVEWESNGQPENNYKTTPPVLDSDGSFFLYSKLTVDKSRWQQGNVFSCSVMHEALHNHYTQKSLSLSPGK
B2: the “EC50, induction of STAT5 phosphorylation (in vitro potency)” value was found to be 5 nM.
